Assay: yeast display, Sf9 membrane polyspecificity reagent, FACS + sequencing; frameworks hold sequencing errors
In short: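 Synthetic nanobody libraries on Saccharomyces cerevisiae BJ5465 were galactose-induced for 36–48 hours, stained 1 hour at 4 °C with 10% biotinylated, detergent-solubilized Sf9 membrane reagent and enriched on streptavidin microbeads. FACS then separated cells into low and high (top ~1%) gates by anti-HA (expression) and streptavidin (reagent binding) fluorescence. Genes were colony-PCR amplified, MiSeq 2 × 250 sequenced and CDR-length filtered. A clone's polyreactivity label is that of its gate of origin.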

Sequence | polyreactivity (PSR sort gate)
QVQLVESGGGLVQAGGSLRLSCAASGRTFWYYAMGWSRQAPGKERELVATITSGGSTYYADSVKGRFTISRDNAKNTVYLQMNSLKPEDTAVYYCAARKYYSRAYDYWGQGTQVTVSS | high polyreactivity
QVQLVESGGGLVQAGGSRRLSCAASGSTFRANAMGWYRQAPGKERELVAAITSSGGSTYYADSVKGRFTISRDNAKNTVYLQMNSLKPEDTAVYYCAAYPRPYIGYTDGYVWYEFDYWGQGTQVTVSS | low polyreactivity
QVQLVESGGGLVQAGGSLRLSCAASGIIFLFYAMGWYRQAPGKERELVASITWSGGSTYYADSVKGRFTISRDNAKNTVYLQMNSLKPEDTAVYYCAASVKIISYLVHSEFLGGELDYWGQGTQVTVSS | low polyreactivity
QVQLVESGGGLVQAGGSLRLSCAASGIIFIYYAMGWYRQAPGKERELVAAISQSGVNTYYADSVKGRFTISRDNAKNTVYLQMNSLKPEDTAVYYCAADRYGHFGYWGQGTQVTVSS | high polyreactivity
QVQLVESGGGLVQAGGSLRLSCAASGYTFGSNAMGWYRQAPGKERELVAAIRYRGDRTYYADSVKGRFTISRDNAKNTVYLQMNSLKPEDTAVYYCAATYGYNTLYRPLRFDYWGQGTQVTVSS | high polyreactivity
QVQLVESGGGLVQAGGSLRLSCAASGSISYTYAMGWYRQATGKERELVASISYSEGITYYADSVKGRFTISRDNAKNTVYLQMNSLKPEDTAVYYCAVEGVYPYYDQSEYDYWGQGTQVTVSS | high polyreactivity
QVQLVESGGGLVQAGGSLRLSCAASASTFAGYVMGWYRPAPGKERELVAAISVSGGSTDYADSVKGRFTISRDNAKNTVYLQMNSLKPEDTAVYYCAAVYVRNQWWRNYYWGQGTQVTVSS | low polyreactivity
QVQLVESGGGLVQAGVSLRLSCAASVITFVYYTMGWYRQAPGKERELVAAISQSAVNTYYADSVKGRFTISRDNAKNTVYLQMNSLKPEVTAVYYCNARFRATFTSYGTDYRRRFDYWGQGTQVTVSS | high polyreactivity
QVQLVESGGGLVQAGVSLRLSSAASGSTLGYNVMGWYRQAPGKERELVAAISGDGSTNYADSVKGRFTISRDNAKNTVYLQMNSLKPEDTAVFYCNAPFWGYRTSFSYPVVQRFDYWGQGTQVTVSS | low polyreactivity
QVQLVESGGGLVQAGGSLRLSCAASGSTFVRYAMGWYRQAPGKERELVASISSSGSTYYADSVKGRFTISRDNAKNTVYLQMNSLKPEDTAVYYCAKQYGGRYGYWGQGTQVTVSS | low polyreactivity
QVQLVESGGGLVQAGGSLRLSSAASGRIFSRNGMGWYRPAPGKERELVAAIRRYGGSTYYADSVKGRFTISRDNEKNTVNLQMNSLKAEDTAVFFCAAEPYGGGVKHSAYDYWGQGTQVTVSS | low polyreactivity
QVQLVESGGGLVQAGGSLRLSCAASGRIFSRYAMGWDRQAPGKERELVAAINNGGSTYYADSVKGRFTISRDNAKNTVYLQMNSLKPEDTAVYYCAKLWWSNFKPVEYWGQGTQVTVSS | low polyreactivity
QVQLVESGGGLVQAGGSLRLSCAASVSTFWFYAMGWYRQAPGKERELVAVISNSGSTYYADSVKGRFTISRDNAKNTVYLQMNSLKPEDTAVYYCAADVEGWTVESDVYRVGYDYWGQGTQVTVSS | low polyreactivity
QVHLVESGGGLVQAGGSLRLSCAASGSTFGYYAMGWYRQAPGKEREFVAAISSSGGSTYYADSVKGRFTISRDNAKNTVYLQMNSLKPEDTAVYYCARVGFPGFYWGQGTQVTVSS | high polyreactivity
QVQLVESGGGIVQAGGSLRLSCAASGRTFEQNVMRWYRQAPGKERELVAAITTGGSTNYADSVKGRFTISRDNAKNTVYLQMNSLKPEDTAVYYCAADRYLGGDYDYWGQGTQVTVSS | low polyreactivity
QVQLVESGGGLVQARGSLRLSCAPSGSIFDHNAMGWYRQAPGKESEFVAAISSSGGSTNYADSVKGRFTISRDIAKNTVYLQMNSLKPEDTAVYYCAAYPDRYVELGYWGQGTQVTVSS | low polyreactivity

Sequence | polyreactivity (PSR sort gate)
QVQLVESGGGLVQAGGSLRLSWATSGFILLDNALGWYRQAPGKESEFVASINISGDRTFYADSVKGRFTISRDNAKNTVYLQMNSLKAEDTAVYYCAKEPGWGRRSTTAYDYWGQGTQVTVSS | low polyreactivity
QVQLVESGGGLVQAGGSLRLSCAASGLTFDDYAMGWYRQAPGKERELVAAINWSGSNTYYADSVKGRFTISRDNAKNTVYLQMNSLKPEDTAVYYCATYSRIFKWEYYYWGQGTQVTVSS | high polyreactivity
QVQLVDSGGGLVQAGGSLRLSSAASGRIFPRYAMGWDRQAPGKERELVATISSGGSTYYADSVKGRFTISRDNAKNTVYLQMISLKPEDTAVYYCATGRQVVRSYSEGDYWGQGTQVTVSS | low polyreactivity
QVQLVESGGGLVQAGGSLRLSCAASGSMFSHYTMGWYRQAPGQERELVAAITNGGITNYADAVKGRFTISRDNAKNTVYLQMNSLKPEDTAVYYCAADWWYGYSNYDYWGQGTQVTVSS | low polyreactivity
QDQLVESGGGLVQAGGSLRLSCAGSGSTFKRYAMGWYRQAPGKDRELVAAISRRGGSTYYADSVKGRFTISRDNAKNTVYLQMNSLKPEDTAVYYCAARGTGNIYDYWGQGTQVTVSS | high polyreactivity
QVQLVESGGGLVQAGGSLRLSCAASGSTFRYYGMGWYRQAPGKERELVADITSGGTTDYADSVKGRFTISRDNAKNTVYLQMNSLKPEDTAVYYCAAGRWYKRQSTWGFGLDHDYWGQGTQVTVSS | low polyreactivity
QVQLVESCGGLVQAGGSLRLSCAASGITFGSYAMGWYRQAPGKERELVAAITTGTSTNYADSVKGRFTISRDNAKNTVYLQMNSLKPEDTAVYYCNAEKYNFIYAYEYWGQGTQVTVSS | low polyreactivity
QVQLVESGGGLVQAGGSLRLSCAASGRIFVPYAMGWYRQAPGKVREFVAAISYRGGSTYYADSVKGRFTISRDNAKNTVYLQMNSLKPEDTAVYYCAKVIPYRGKVTLDYWGQGTQVTVSS | low polyreactivity
QVQLGESGGGLVQAGGSLRLSCAASGLIFVWNDMGWYRQAPGKEGELVADISDGSTYADSVKGRFTISRDNAKNTVYVQMNRLQPEHTAVYYCNKDNHDVELPVEFEYWGQGTQVTVSS | high polyreactivity
QVQLVESGGGLVQAGGSLRLSCAASGRTFYDYAMGWYRQAPGKERELVASINSDGSTYYADSVKGRFTISLDNAKNTVYLQMNSLKPEDTAVYYCAADALLYSVYYRMYGYDYWGQGTQVTVSS | low polyreactivity
QVQLVESGGGLVQAGGSLRLSCAASGSTFLYYAMGWYRQAPGKERELVAAITSSGGRTYYADSVKGRFTISRDNAKNTVYLQMNSLKPEDTAVYYCARGWPRREQSEYDYWGQGTQVTVSS | high polyreactivity
QVQLVESGGGLVQAGGSLRLSCAASGSIFAVYAMRCYRQAPAKARELVATITGIDTGTYYADSVKGRCTISRDIAKNTVYLHMNILKPEDTAVYYCAAVCRYRHLRFYYWGQGTQGTVSS | high polyreactivity
QVQLVESGGGLVQAGGSLRLSCAASGIIFVTNDMGWYRQAPGKERELVATITWSGGSTYYADSVKGRFTISRDTAKNTVYLQMNSLKPEDTAVYYCAAEKDAHKEDYWGQGSQVTVSS | low polyreactivity
QVQLVESGGGLVQAGGSLRLSCAASGSIFSNYAMGGYRQAPGKERELVAAISRNGGSTSYADSVKGRFTISRDNAKNTVYLQMNSLKPEDTAVYYCAKRYKTAQYYYWGQGTQVTVSS | high polyreactivity
QVQLVESGGGLVQAGGSLRLSCAASGRTFGWNARGWYRQAPGKEKELVAAISWSGTNTYYADSVKGRFTISRDNAKNTVYLQMNSLKPEDTAVYYCAARDWTGSWNGYWSCEYNYWGQGTQVTGSS | low polyreactivity

Source: the nanobody polyreactivity screen of Harvey et al. (2022)
